Our source for the Kd, Fab labeling density and nanobodies bound per BCR (average) values is publication PMC9947222.

Series [1] has as its system anti-NP mAb clone B1-8 (Abcam ab206523) (mouse). As to the kind of experiment: FIDA. Particulars: binding via NIP hapten; in solution; LNA/2'-OMe as N0; one 5' amino-C6 NIP hapten (carrier strand not stated); BLI: PBS, 0.02% Tween-20, 0.1% BSA, pH 7.4, HJ 0.2-20 nM, temperature not stated; all positive binding is through the NP/NIP hapten, not the nucleic acid.
The target in series [2] is mouse IgG2a (mIgG2a) antibody (BALB/c IgG2a,κ Purified Mouse Anti-Mouse I-A[b], Clone AF6-120.1), conjugated to the S1-handle DNA with P3 docking site (mouse). The series can be described thus: DNA-PAINT super-resolution microscopy on DNA origami (labeling efficiency); mIgG2a-DNA conjugate (60 nM) hybridised to DNA origami held by neutravidin on a biotin-PEG surface; κLC-Nb-7xR3 added in 0.5x buffer C + 1.5% BSA, >45 min at RT, excess washed off; two rounds of Exchange-PAINT (R3, P3); R3 clusters <19 nm from P3 clusters counted.

As for “CCGTCCTGAGCC / CACAGTGGACGG / GGCTCACCGATC / GATCGGACTGTG [HJ-1xNIP]”, in series [1], the Kd (as a rule, a measure of binding affinity in units of concentration) was 20 nM.

Consider “anti-mouse kappa light chain nanobody (κLC-Nb) with Ser87 replaced by Cys87, conjugated to the DNA-PAINT docking strand 7xR3 (VHH)”, for which, in series [2], the Fab labeling density came out at 80% and the nanobodies bound per BCR (average) is 1.5.
